Experimental data published in the supplement of paper PMC12667976.

B1: library; numbered along this chain (parent)
chain: MATDAALRRLLRLHRTEIAVAVDSAFPLLHALADHDVVPEDKFQETLHLKEKEGCPQAFHALLSWLLTQDSTAILDFWRVLFKDYNLERYGRLQPILDSFPKDVDLSQPRKGRKPPAVPKALVPPPRLPTKRKASEEARAAAPAALTPRGTASPGSQLKAKPPKKPESSAEQQRLPLGNGIQTMSASVQRAVAMSSGDVPGARGAVEGILIQQVFESGGSKKCIQVGGEFYTPSKFEDSGSGKNKARSSSGPKPLVRAKGAQGAAPGGGEARLGQQGSVPAPLALPSDPQLHQKNEDECAVCRDGGELICCDGCPRAFHLACLSPPLREIPSGTWRCSSCLQATVQEVQPRAEEPRPQEPPVETPLPPGLRSAGEEVRGPPGEPLAGMDTTLVYKHLPAPPSAAPLPGLDSSALHPLLCVGPEGQQNLAPGARCGVCGDGTDVLRCTHCAAAFHWRCHFPAGTSRPGTGLRCRSCSGDVTPAPVEGVLAPSPARLAPGPAKDDTASHEPALHRDDLESLLSEHTFDGILQWAIQSMARPAAPFPS

Variants of: B1
Experiment: AIRE transcriptional activation functional score (insulin promoter-GFP; nonsense median 0, synonymous median 1) (normalised score); higher = higher AIRE activity (more reporter activation)
Settings: with insulin promoter-GFP reporter in HEK293
Procedure: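 Deep mutational scan of full-length human AIRE (codon-optimized cDNA, DT-POPCode NNN libraries over three regions) integrated at a Bxb1 landing pad in HEK293 cells carrying an insulin core promoter-GFP reporter at a Flp-In site. Cells were sorted for the top 10% GFP about 14 days after transfection. Variant frequency log-ratios (select vs non-select, TileSeq) were rescaled so that the nonsense median is 0 and the synonymous median is 1, then averaged over biological replicates.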

AIRE transcriptional activation functional score of substitutions, site by site:
S185: C 0.855, T 1.56, N 0.832, Q 0.746, E 0.209, W 0.557, K 1, Y 0.264
L177: R 0.707, E -0.132, P 0.397, Y 1.89, G -0.4, K 1.09, S 0.553, V 0.75, M 1.57, T 0.252, Q 0.719, H 1.01, W 2.38, I 0.748, N 0.575, F 1.5
I181: E 0.0205, Q -0.331, H -0.417, M 0.958, S 0.834, G 0.602, F 1.59, N 1.53, T 0.242, W 1.14, P -1.22, R 0.684, K 0.076, Y 1.13, A 0.485, C 0.211, V 0.788, D 0.3, L 0.717
G180: V 0.54, I 0.248, K 1.02, F -0.106, T 0.839, R 1.63, A 1.21, Y 0.548, E 0.208, M 0.445, P -1.38, N 1.23, W -0.0444, L 0.0432, C 1.24, H 1.31, D 0.474, S 0.929
N179: C 1.26, K 1.14, E 1.14, M 1.62, L 0.991, R 1.52, W -2.31, T 1.79, V 1.49, Q -0.585, A 1.53, G 0.991, S 0.818, D 0.42, P 1.71, I 1.15, H 1.97, Y 1.15, F 0.503
A186: E 0.734, D 1.11, C 1.29, F -0.0353
